Reference: patent US7407939B2, “Protein kinase inhibitors comprising ATP mimetics conjugated to peptides or peptidomimetics” (CureGenics Ltd., priority 2001, dated 2008)
Read-outs that look alike come from different tables or passages of the source. *1 amine or outer side, *2 acyl side, *3 side chain or, on linkers, in order; H or OH if unused. Where a SMILES comes first, the peptide text is derived from it. Where no end group is shown, it is not given here. Side-chain parts run from the residue outwards. [ ]: non-standard residue; d: D form. The star is where a group is joined. X1 = 5‑aminoethylsulfonamide isoquinoline, O=S(=O)(NCCN*)c1cccc2cnccc12; Isoquinoline5sulfonyl = O=S(=O)(c1cccc2cnccc12)*; Ethylenediamine = C(CN[*:2])N[*:1]; hLeu = CC(C)CC[C@H](N)C(=O)O; Nle = CCCC[C@H](N)C(=O)O; Orn = NCCC[C@H](N)C(=O)O; Dab = NCC[C@H](N)C(=O)O; Nva = CCC[C@H](N)C(=O)O; Abu = CC[C@H](N)C(=O)O; Dap = NC[C@H](N)C(=O)O; βAla = NCCC(=O)O

What was measured:
PKA = target: T1, PKA (Bos taurus, UniProt P00517); test: In vitro PKA kinase activity assay (kemptide / SPA beads); format: biochemical; parameters: % Inhibition PKA: concentration or dose not given beside the values; settings: for PKA-kinase Assay 1, % inhibition of kinase activity / PKA-kinase Assay 2, % inhibition of kinase activity / inhibition at 1 µM: 1 μM compound concentration;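 as to all read-outs here: Cell-free assay of purified PKA catalytic subunit phosphorylating the 7-mer kemptide substrate, run in MOPS buffer with magnesium acetate and BSA, with blank wells lacking enzyme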
T1 construct: purchased Promega

PKB = target: T2, PKB (Homo sapiens, UniProt P31749); test: PKB in vitro kinase activity assay (soluble His-HA-PKB / SPA bead screening); format: biochemical; parameters: % Inhibition PKB I / % Inhibition PKB II: concentration or dose not given beside the values; settings: for PKB-kinase (spa) Assay 1, % inhibition of kinase activity / PKB-kinase (spa) Assay 2, % inhibition of kinase activity / inhibition at 1 µM: 1 μM compound concentration
T2 construct: His; HA; made in house

[1] = Table 6, most active compounds from plate TY-60020, read-out: IC50 PKA
[2] = Assay 1, read-out: PKB-kinase (spa) Assay 1, % inhibition of kinase activity
[3] = Assay 2, read-out: PKB-kinase (spa) Assay 2, % inhibition of kinase activity
[4] = Table 6, most active compounds from plate TY-60020, read-out: IC50 PKB
[5] = Table 3, linear 7-mer peptides, read-out: Activity PKA
[6] = Table 3, linear 7-mer peptides, read-out: Activity PKB

T2 sequence (P31749 whole entry, species assumed): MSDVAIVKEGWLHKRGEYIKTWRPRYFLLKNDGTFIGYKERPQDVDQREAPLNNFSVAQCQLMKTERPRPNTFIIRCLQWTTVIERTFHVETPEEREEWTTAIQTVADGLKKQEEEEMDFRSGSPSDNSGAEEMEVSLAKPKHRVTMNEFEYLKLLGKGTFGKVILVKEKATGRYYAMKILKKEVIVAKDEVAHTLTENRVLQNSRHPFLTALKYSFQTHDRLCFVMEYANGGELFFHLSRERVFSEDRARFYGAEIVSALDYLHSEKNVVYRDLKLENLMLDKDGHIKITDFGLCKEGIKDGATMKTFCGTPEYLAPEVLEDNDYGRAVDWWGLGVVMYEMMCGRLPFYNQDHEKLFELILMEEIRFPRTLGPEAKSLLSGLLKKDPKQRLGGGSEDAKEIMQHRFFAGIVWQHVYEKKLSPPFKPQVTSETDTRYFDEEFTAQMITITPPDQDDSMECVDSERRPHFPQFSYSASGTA

PKA-kinase Assay 1, % inhibition of kinase activity (PKA; Assay 1) [%] | PKA-kinase Assay 2, % inhibition of kinase activity (PKA; Assay 2) [%] | PKB-kinase (spa) Assay 1, % inhibition of kinase activity (PKB; Assay 1) [%] | PKB-kinase (spa) Assay 2, % inhibition of kinase activity (PKB; Assay 2) [%] | Compound | also measured
96 | 96 | 48 | 62 | 60020-43: Arg-Pro-Arg-Orn-Glu(Gly-5-aminoethylsulfonamide isoquinoline)-Orn-Phe (RPR[Orn]E([Gly-X1])[Orn]F) | –
95 | 96 | 43 | 56 | 60020-35: Arg-Pro-Arg-Dap-Glu(Gly-5-aminoethylsulfonamide isoquinoline)-Orn-Phe (RPR[Dap]E([Gly-X1])[Orn]F; not fully specified) | –
98 | 99 | 53 | 44 | 60020-37: Arg-Pro-Arg-Dap-Glu(Gly-5-aminoethylsulfonamide isoquinoline)-Ala-Phe (RPR[Dap]E([Gly-X1])AF) | –
– | – | – | – | CCCC[C@H](NC(=O)[C@H](CCCNC(=N)N)NC(=O)[C@@H]1CCCN1C(=O)[C@@H](N)CCCNC(=N)N)C(=O)N[C@@H](CCC(=O)NCCC(=O)NCCNS(=O)(=O)c1cccc2cnccc12)C(=O)N[C@@H](CCC)C(=O)N[C@@H](Cc1ccccc1)C(N)=O [60020-95] (H-RPR[Nle]E([βAla-Ethylenediamine-Isoquinoline5sulfonyl])[Nva]F-NH2; N-terminus assumed) | IC50 (PKA; [1]): 2 µM; inhibition at 1 µM (PKB; [2]): 46%; inhibition at 1 µM (PKB; [3]): 90%; IC50 (PKB; [4]): 3.3 µM
95 | 96 | 58 | 52 | 60020-11: Arg-Pro-Arg-Orn-Glu(5-aminoethylsulfonamide isoquinoline)-Orn-Phe (RPR[Orn]E(X1)[Orn]F) | –
97 | 98 | 64 | 65 | 60020-34: Arg-Pro-Arg-Dap-Glu(Gly-5-aminoethylsulfonamide isoquinoline)-Dab-Hol (RPR[Dap]E([Gly-X1])[Dab][hLeu]) | –
87 | 89 | 59 | 70 | 60020-60: Arg-Pro-Arg-Nle-Glu(Gly-5-aminoethylsulfonamide isoquinoline)-Orn-Hol (RPR[Nle]E([Gly-X1])[Orn][hLeu]) | –
– | – | – | – | N=C(N)NCCC[C@H](NC(=O)[C@@H]1CCCN1C(=O)[C@@H](N)CCCNC(=N)N)C(=O)N[C@@H](CN)C(=O)N[C@@H](CCC(=O)NCCC(=O)NCCNS(=O)(=O)c1cccc2cnccc12)C(=O)N[C@@H](CCCN)C(=O)N[C@@H](Cc1ccccc1)C(N)=O [60020-67] (H-RPR[Dap]E([βAla-Ethylenediamine-Isoquinoline5sulfonyl])[Orn]F-NH2; N-terminus assumed) | IC50 (PKA; [1]): 0.25 µM; inhibition at 1 µM (PKB; [2]): 51%; inhibition at 1 µM (PKB; [3]): 68%; IC50 (PKB; [4]): 1.08 µM
– | – | – | – | CC[C@H](NC(=O)[C@H](CO)NC(=O)[C@@H](NC(=O)[C@H](CCCNC(=N)N)NC(=O)[C@@H]1CCCN1C(=O)[C@@H](N)CCCNC(=N)N)[C@@H](C)O)C(=O)N[C@@H](CCC(C)C)C(N)=O [TY 60002-73, Arg-Pro-Arg-Thr-Ser-Abu-Hol] (H-RPRTS[Abu][hLeu]-NH2; N-terminus and C-terminus assumed) | IC50 (PKA; [5]): > 40 µM; IC50 (PKA; Table 10, accurate IC50 curve, peptide moiety alone, read-out: IC50 μM PKA): 228 µM; % Inhibition PKA (PKA; plate screening, peptide moiety alone): 8%; IC50 (PKB; [6]): 5 µM; IC50 (PKB; Table 10, accurate IC50 curve, peptide moiety alone, read-out: IC50 μM PKB): 34 µM; % Inhibition PKB I (PKB; plate screening, peptide moiety alone, PKB I): 44%
92 | 94 | 45 | 48 | 60020-10: Arg-Pro-Arg-Orn-Glu(5-aminoethylsulfonamide isoquinoline)-Dab-Hol (RPR[Orn]E(X1)[Dab][hLeu]) | –
– | – | – | – | CC(C)CC[C@H](NC(=O)[C@H](CCN)NC(=O)[C@H](CCC(=O)NCC(=O)NCCNS(=O)(=O)c1cccc2cnccc12)NC(=O)[C@H](CCCN)NC(=O)[C@H](CCCNC(=N)N)NC(=O)[C@@H]1CCCN1C(=O)[C@@H](N)CCCNC(=N)N)C(N)=O [60020-42, Arg-Pro-Arg-Orn-Glu-(Gly-5-aminoethylsulfonamide)-Dab-Hol] (H-RPR[Orn]E([Gly-Ethylenediamine-Isoquinoline5sulfonyl])[Dab][hLeu]-NH2) | inhibition at 1 µM (PKA; Assay 1, read-out: PKA-kinase Assay 1, % inhibition of kinase activity): 99%; inhibition at 1 µM (PKA; Assay 2, read-out: PKA-kinase Assay 2, % inhibition of kinase activity): 99%; IC50 (PKA; Table 1, most preferred compounds, read-out: IC50 PKA): 0.05 µM; inhibition at 1 µM (PKB; [2]): 80%; inhibition at 1 µM (PKB; [3]): 86%; IC50 (PKB; Table 1, most preferred compounds, read-out: IC50 PKB): 0.11 µM
– | – | – | – | CC[C@H](NC(=O)[C@H](CO)NC(=O)[C@@H](NC(=O)[C@H](CCCNC(=N)N)NC(=O)[C@@H]1CCCN1C(=O)[C@@H](N)CCCNC(=N)N)C(C)C)C(=O)N[C@@H](Cc1ccccc1)C(N)=O [TY 60002-61, Arg-Pro-Arg-Val-Ser-Abu-Phe] (H-RPRVS[Abu]F-NH2; N-terminus and C-terminus assumed) | IC50 (PKA; [5]): > 40 µM; IC50 (PKB; [6]): 5 µM
